Abundance fitness data for 47 variants are collected here from the Human Domainome abundance scans (Beltran et al. 2025).

± gives the uncertainty stated by the source.

B1: Nucleosome-remodeling factor subunit BPTF, residues 2862 to 2918; numbered along this chain, Q12830 (parent)
chain: TKKDTKLYCICKTPYDESKFYIGCDRCQNWYHGRCVGILQSEAELIDEYVCPQCQST

In the series the parent is B1. Kind of series: abundance fitness (aPCA) (normalised: wild type 0, dead -1); higher = more abundant; growth selection in yeast, the domain comes from the species named. As to conditions: Homo sapiens.
As for TKKDTKLMCICKTPYDESKFYIGCDRCQNWYHGRCVGILQSEAELIDEYVCPQCQST [Y8M], the abundance fitness stood at 0.015 ± 0.1.
The value for TKKDTKLPCICKTPYDESKFYIGCDRCQNWYHGRCVGILQSEAELIDEYVCPQCQST [Y8P] was -0.298 ± 0.1; that for TKKDTKLGCICKTPYDESKFYIGCDRCQNWYHGRCVGILQSEAELIDEYVCPQCQST [Y8G] was 0.051 ± 0.12; that for TKKDTKLACICKTPYDESKFYIGCDRCQNWYHGRCVGILQSEAELIDEYVCPQCQST [Y8A] was 0.065 ± 0.09.
Take TKKDTKLRCICKTPYDESKFYIGCDRCQNWYHGRCVGILQSEAELIDEYVCPQCQST [Y8R]: the abundance fitness is -0.105 ± 0.078.
With TKKDTKLDCICKTPYDESKFYIGCDRCQNWYHGRCVGILQSEAELIDEYVCPQCQST [Y8D], the abundance fitness was found to be 0.072 ± 0.13.
As for TKKDTKLLCICKTPYDESKFYIGCDRCQNWYHGRCVGILQSEAELIDEYVCPQCQST [Y8L], the figure is -0.043 ± 0.081.
As for TKKDTKLECICKTPYDESKFYIGCDRCQNWYHGRCVGILQSEAELIDEYVCPQCQST [Y8E], the figure is 0.166 ± 0.12; as for TKKDTKLTCICKTPYDESKFYIGCDRCQNWYHGRCVGILQSEAELIDEYVCPQCQST [Y8T], -0.041 ± 0.097.
As for TKKDTKLCCICKTPYDESKFYIGCDRCQNWYHGRCVGILQSEAELIDEYVCPQCQST [Y8C], the figure is -0.028 ± 0.12; as for TKKDTKLQCICKTPYDESKFYIGCDRCQNWYHGRCVGILQSEAELIDEYVCPQCQST [Y8Q], 0.054 ± 0.14.
As for TKKDTKLICICKTPYDESKFYIGCDRCQNWYHGRCVGILQSEAELIDEYVCPQCQST [Y8I], the abundance fitness is -0.166 ± 0.12.
For the variant TKKDTKLWCICKTPYDESKFYIGCDRCQNWYHGRCVGILQSEAELIDEYVCPQCQST [Y8W], the abundance fitness was -0.164 ± 0.11.
The value for TKKDTKLKCICKTPYDESKFYIGCDRCQNWYHGRCVGILQSEAELIDEYVCPQCQST [Y8K] was 0.065 ± 0.15.
As for TKKDTKLSCICKTPYDESKFYIGCDRCQNWYHGRCVGILQSEAELIDEYVCPQCQST [Y8S], the figure is -0.014 ± 0.078.
As for TKKDTKLFCICKTPYDESKFYIGCDRCQNWYHGRCVGILQSEAELIDEYVCPQCQST [Y8F], the figure is -0.037 ± 0.15; as for TKKDTKLVCICKTPYDESKFYIGCDRCQNWYHGRCVGILQSEAELIDEYVCPQCQST [Y8V], -0.081 ± 0.11.
As to TKKDGKLYCICKTPYDESKFYIGCDRCQNWYHGRCVGILQSEAELIDEYVCPQCQST [T5G], the abundance fitness is -0.155 ± 0.073.
TKKDVKLYCICKTPYDESKFYIGCDRCQNWYHGRCVGILQSEAELIDEYVCPQCQST [T5V]: the abundance fitness is -0.282 ± 0.06.
The value for TKKDHKLYCICKTPYDESKFYIGCDRCQNWYHGRCVGILQSEAELIDEYVCPQCQST [T5H] was -0.055 ± 0.066; that for TKKDQKLYCICKTPYDESKFYIGCDRCQNWYHGRCVGILQSEAELIDEYVCPQCQST [T5Q] was -0.052 ± 0.1.
As for TKKDEKLYCICKTPYDESKFYIGCDRCQNWYHGRCVGILQSEAELIDEYVCPQCQST [T5E], the figure is 0.064 ± 0.12; as for TKKDYKLYCICKTPYDESKFYIGCDRCQNWYHGRCVGILQSEAELIDEYVCPQCQST [T5Y], -0.016 ± 0.066.
As for TKKDKKLYCICKTPYDESKFYIGCDRCQNWYHGRCVGILQSEAELIDEYVCPQCQST [T5K], the figure is 0.05 ± 0.086; as for TKKDWKLYCICKTPYDESKFYIGCDRCQNWYHGRCVGILQSEAELIDEYVCPQCQST [T5W], -0.238 ± 0.11.
For the variant TKKDCKLYCICKTPYDESKFYIGCDRCQNWYHGRCVGILQSEAELIDEYVCPQCQST [T5C], the abundance fitness was 0.002 ± 0.077.
As for TKKDLKLYCICKTPYDESKFYIGCDRCQNWYHGRCVGILQSEAELIDEYVCPQCQST [T5L], the figure is -0.092 ± 0.063; as for TKKDDKLYCICKTPYDESKFYIGCDRCQNWYHGRCVGILQSEAELIDEYVCPQCQST [T5D], 0.028 ± 0.08.
TKKDFKLYCICKTPYDESKFYIGCDRCQNWYHGRCVGILQSEAELIDEYVCPQCQST [T5F]: the abundance fitness is -0.076 ± 0.068.
The value for TKKDAKLYCICKTPYDESKFYIGCDRCQNWYHGRCVGILQSEAELIDEYVCPQCQST [T5A] was -0.213 ± 0.07; that for TKKDMKLYCICKTPYDESKFYIGCDRCQNWYHGRCVGILQSEAELIDEYVCPQCQST [T5M] was 0.024 ± 0.094.
The value for TKKDNKLYCICKTPYDESKFYIGCDRCQNWYHGRCVGILQSEAELIDEYVCPQCQST [T5N] was 0.016 ± 0.063.
The value for TKKDIKLYCICKTPYDESKFYIGCDRCQNWYHGRCVGILQSEAELIDEYVCPQCQST [T5I] was -0.017 ± 0.062.
With TKKDSKLYCICKTPYDESKFYIGCDRCQNWYHGRCVGILQSEAELIDEYVCPQCQST [T5S], the abundance fitness is -0.071 ± 0.057.
Turning to TKKDTKLYDICKTPYDESKFYIGCDRCQNWYHGRCVGILQSEAELIDEYVCPQCQST [C9D], the abundance fitness is -0.827 ± 0.1.
As for TKKDTKLYAICKTPYDESKFYIGCDRCQNWYHGRCVGILQSEAELIDEYVCPQCQST [C9A], the figure is -0.877 ± 0.081; as for TKKDTKLYHICKTPYDESKFYIGCDRCQNWYHGRCVGILQSEAELIDEYVCPQCQST [C9H], -0.838 ± 0.077.
As for TKKDTKLYEICKTPYDESKFYIGCDRCQNWYHGRCVGILQSEAELIDEYVCPQCQST [C9E], the figure is -0.971 ± 0.22.
The value for TKKDTKLYKICKTPYDESKFYIGCDRCQNWYHGRCVGILQSEAELIDEYVCPQCQST [C9K] was -0.706 ± 0.17.
For TKKDTKLYPICKTPYDESKFYIGCDRCQNWYHGRCVGILQSEAELIDEYVCPQCQST [C9P], the abundance fitness was -0.716 ± 0.068.
As for TKKDTKLYRICKTPYDESKFYIGCDRCQNWYHGRCVGILQSEAELIDEYVCPQCQST [C9R], the figure is -0.879 ± 0.09; as for TKKDTKLYLICKTPYDESKFYIGCDRCQNWYHGRCVGILQSEAELIDEYVCPQCQST [C9L], -0.815 ± 0.065.
As for TKKDTKLYFICKTPYDESKFYIGCDRCQNWYHGRCVGILQSEAELIDEYVCPQCQST [C9F], the figure is -0.916 ± 0.071.
The value for TKKDTKLYQICKTPYDESKFYIGCDRCQNWYHGRCVGILQSEAELIDEYVCPQCQST [C9Q] was -0.846 ± 0.099; that for TKKDTKLYIICKTPYDESKFYIGCDRCQNWYHGRCVGILQSEAELIDEYVCPQCQST [C9I] was -1.05 ± 0.094.
In the case of TKKDTKLYGICKTPYDESKFYIGCDRCQNWYHGRCVGILQSEAELIDEYVCPQCQST [C9G], the abundance fitness was -0.801 ± 0.078.
Consider TKKDTKLYNICKTPYDESKFYIGCDRCQNWYHGRCVGILQSEAELIDEYVCPQCQST [C9N], for which the abundance fitness is -0.932 ± 0.096.
